{"source": "paper PMC3374832", "about": "“The Structure of the Oligomerization Domain of Lsr2 from Mycobacterium tuberculosis Reveals a Mechanism for Chromosome Organization and Protection” (PLoS ONE, 2012)", "biological_target": "the molecule itself", "assay": "SEC; S75 16/60GL or 10/300GL column, 20 mM tris-HCl pH 7.5, 150 mM NaCl; fresh sample, 14-week-old sample and sample treated with trypsin (1:500, 5 min, room temperature)"}
{"protein": "Lsr2 N-terminal dimerization domain, construct Nterm2 (residues 1-61), freshly purified (domain or fragment, Lsr2 (Rv3597c) of Mycobacterium tuberculosis H37Rv, residues 1-61; also called N-Lsr2; Lsr2 N-terminal domain; not shown: His6, N-terminal, kept) MAKKVTVTLVDDFDGSGAADETVEFGLDGVTYEIDLSTKNATKLRGDLKQWVAAGRRVGGR", "values": [{"measurement": "stoichiometry N", "value": 2}]}
